This data set concerns the molecule itself. Nature of the data set: SEC; analytical gel filtration, Superdex-200 10/300GL, 50 mM Tris pH 7, 500 mM NaCl, 5% glycerol; mass against protein standards. (Size exclusion chromatography separates by hydrodynamic size, large species first.)

B1: Tsi2–H6 (C-terminal hexahistidine-tagged Tsi2) (natural protein)
chain: MNLKPQTLMVAIQCVAARTRELDAQLQNDDPQNAAELEQLLVGYDLAADDLKNAYEQALGQYSGLPPYDRLIEEPAS
notes: source: E. coli BL21 pLysS, purified (HisTrap FF, Sephacryl S-200 size exclusion); not shown: His6, C-terminal, kept
For B1, the stoichiometry N (as a rule, the number of molecules, sites or subunits per partner or assembly) stood at 2.

The values are drawn from article PMC3325213 (PLoS Pathogens, 2012).
